Consider six molecules from PMC8327961, “Nse5/6 inhibits the Smc5/6 ATPase and modulates DNA substrate binding” (The EMBO Journal, 2021).

Series [1] has as its target Smc5/6 hexamer (Smc5, Smc6, Nse1, Nse2, Nse3, Nse4) (Saccharomyces cerevisiae) (UniProt Q08204+Q12749+Q07913+P38632+Q05541+P43124). Nature of the series: fluorescence anisotropy. As to conditions: ATPase buffer: 10 mM Hepes-KOH pH 7.5, 150 mM K-OAc, 2 mM MgCl2, 20% glycerol; anisotropy at 25 C; plasmid pulldown bound at room temperature, high-salt buffer …. (In general: Fluorescence polarisation rises when a labelled molecule tumbles more slowly, as on binding a larger partner.)

Series [2] deals with Smc5/6 octamer (hexamer plus Nse5/6) (Saccharomyces cerevisiae, UniProt Q08204;Q12749;Q07913;P38632;Q05541;P43124;Q03718;P40026 …). Briefly: fluorescence anisotropy. Conditions: ATPase buffer: 10 mM Hepes-KOH pH 7.5, 150 mM K-OAc, 2 mM MgCl2, 20% glycerol; anisotropy at 25 C; plasmid pulldown bound at room temperature, high-salt buffer ….
The target of series [3] is T1, Smc6 (Twin-Strep-tag removed, as in the octamer for lysine cross-linking) (S. cerevisiae, UniProt Q12749 1-1114).
T1 construct: Smc6, S. cerevisiae; subunit of the octamer used for XL-MS; source: E. coli (DE3) Rosetta, purified as part of the hexamer; tag removed by HRV-3C before SEC of the octamer; not shown: Twin-Strep (after a 3C site), C-terminal, cleaved
T1 sequence (looked up): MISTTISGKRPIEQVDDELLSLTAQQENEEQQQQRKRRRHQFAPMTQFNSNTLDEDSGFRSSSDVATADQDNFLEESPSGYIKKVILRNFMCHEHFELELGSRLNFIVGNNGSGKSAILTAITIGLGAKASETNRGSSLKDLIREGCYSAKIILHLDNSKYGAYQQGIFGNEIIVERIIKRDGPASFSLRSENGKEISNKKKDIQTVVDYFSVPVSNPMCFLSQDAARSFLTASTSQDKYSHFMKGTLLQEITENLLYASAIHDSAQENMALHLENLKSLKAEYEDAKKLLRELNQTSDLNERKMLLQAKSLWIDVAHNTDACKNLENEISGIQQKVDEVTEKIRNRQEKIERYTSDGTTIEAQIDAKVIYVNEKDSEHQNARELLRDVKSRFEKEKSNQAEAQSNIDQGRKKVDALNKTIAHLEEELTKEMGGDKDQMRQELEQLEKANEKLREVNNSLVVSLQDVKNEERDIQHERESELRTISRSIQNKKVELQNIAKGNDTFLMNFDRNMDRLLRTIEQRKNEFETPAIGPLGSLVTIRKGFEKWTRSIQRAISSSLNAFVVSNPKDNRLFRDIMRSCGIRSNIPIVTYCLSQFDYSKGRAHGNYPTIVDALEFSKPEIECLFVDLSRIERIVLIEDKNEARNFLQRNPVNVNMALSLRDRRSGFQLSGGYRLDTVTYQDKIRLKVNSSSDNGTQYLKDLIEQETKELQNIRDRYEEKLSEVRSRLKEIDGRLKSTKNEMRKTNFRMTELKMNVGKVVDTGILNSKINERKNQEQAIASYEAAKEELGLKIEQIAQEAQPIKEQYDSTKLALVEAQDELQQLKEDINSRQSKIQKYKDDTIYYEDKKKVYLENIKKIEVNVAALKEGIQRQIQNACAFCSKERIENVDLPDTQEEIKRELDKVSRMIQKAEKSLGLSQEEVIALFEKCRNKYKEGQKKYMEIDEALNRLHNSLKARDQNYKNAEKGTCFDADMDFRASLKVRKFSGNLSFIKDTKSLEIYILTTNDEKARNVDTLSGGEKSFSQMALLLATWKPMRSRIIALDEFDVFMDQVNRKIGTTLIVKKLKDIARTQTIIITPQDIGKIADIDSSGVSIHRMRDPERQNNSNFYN
Briefly: cross-linking; XL-MS with PhoX (0.25 mM, 20 min, RT) on the octamer, 1.6 µM; ATPase buffer (10 mM Hepes-KOH pH 7.5, 150 mM potassium acetate, 2 mM MgCl2, 20% glycerol); without and with 2 mM ATP and 16 nM plasmid DNA; wild-type and Smc5(EQ)/Smc6(EQ) octamers. As to conditions: both partners purified.

Another series addresses T2, Nse1/3/4 sub-complex (S. cerevisiae, UniProt Q07913 1-336; Q05541 1-303; P43124 1-402).
T2 construct: Nse1, S. cerevisiae; Nse3, S. cerevisiae; Nse4, S. cerevisiae; used where the text names only the module as the partner of a cross-link and not which subunit; also called Nse1/3/4 module; Nse4/3/1 module; source: E. coli (DE3) Rosetta, purified as part of the hexamer and octamer; copies: + +
T2 sequence (looked up) 1: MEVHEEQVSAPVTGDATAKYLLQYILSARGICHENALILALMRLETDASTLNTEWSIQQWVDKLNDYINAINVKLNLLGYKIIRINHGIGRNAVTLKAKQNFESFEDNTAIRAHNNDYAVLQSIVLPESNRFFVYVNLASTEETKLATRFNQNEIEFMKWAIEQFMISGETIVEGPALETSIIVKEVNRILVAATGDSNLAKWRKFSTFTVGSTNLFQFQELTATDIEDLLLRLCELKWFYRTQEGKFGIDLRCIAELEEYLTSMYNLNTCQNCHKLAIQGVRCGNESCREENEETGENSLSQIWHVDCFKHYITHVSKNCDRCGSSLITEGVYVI
T2 sequence (looked up) 2: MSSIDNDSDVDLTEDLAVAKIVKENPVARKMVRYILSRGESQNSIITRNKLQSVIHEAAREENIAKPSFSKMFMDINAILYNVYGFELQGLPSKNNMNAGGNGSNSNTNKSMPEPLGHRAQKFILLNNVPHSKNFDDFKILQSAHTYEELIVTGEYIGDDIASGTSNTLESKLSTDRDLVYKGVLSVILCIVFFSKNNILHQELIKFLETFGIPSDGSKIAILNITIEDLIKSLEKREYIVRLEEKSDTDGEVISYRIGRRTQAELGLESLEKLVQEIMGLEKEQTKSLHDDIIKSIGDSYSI
T2 sequence (looked up) 3: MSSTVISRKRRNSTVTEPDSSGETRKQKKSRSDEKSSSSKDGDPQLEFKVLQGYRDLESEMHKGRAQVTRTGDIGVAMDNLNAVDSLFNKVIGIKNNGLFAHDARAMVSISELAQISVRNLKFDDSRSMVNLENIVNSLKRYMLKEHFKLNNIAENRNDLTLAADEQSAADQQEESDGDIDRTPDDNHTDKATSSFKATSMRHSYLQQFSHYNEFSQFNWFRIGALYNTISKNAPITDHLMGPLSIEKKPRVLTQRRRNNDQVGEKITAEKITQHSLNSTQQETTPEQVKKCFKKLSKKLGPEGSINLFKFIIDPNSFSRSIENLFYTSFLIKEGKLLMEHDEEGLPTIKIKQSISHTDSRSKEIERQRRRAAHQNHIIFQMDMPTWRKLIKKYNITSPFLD
Nature of the series: cross-linking; XL-MS with the lysine-reactive PhoX (0.25 mM, 20 min, RT) on the reconstituted octamer, 1.6 µM; salt buffer 20 mM Hepes-KOH pH 7.5, 250 mM NaCl. As to conditions: both partners purified.

Series [4] concerns the target T1, Smc6 (Twin-Strep-tag removed, as in the …). Described as above. As to conditions: both partners purified.

Chain of Smc5/6 octamer (hexamer plus Nse5/6) (P40026 whole entry, one chain of several): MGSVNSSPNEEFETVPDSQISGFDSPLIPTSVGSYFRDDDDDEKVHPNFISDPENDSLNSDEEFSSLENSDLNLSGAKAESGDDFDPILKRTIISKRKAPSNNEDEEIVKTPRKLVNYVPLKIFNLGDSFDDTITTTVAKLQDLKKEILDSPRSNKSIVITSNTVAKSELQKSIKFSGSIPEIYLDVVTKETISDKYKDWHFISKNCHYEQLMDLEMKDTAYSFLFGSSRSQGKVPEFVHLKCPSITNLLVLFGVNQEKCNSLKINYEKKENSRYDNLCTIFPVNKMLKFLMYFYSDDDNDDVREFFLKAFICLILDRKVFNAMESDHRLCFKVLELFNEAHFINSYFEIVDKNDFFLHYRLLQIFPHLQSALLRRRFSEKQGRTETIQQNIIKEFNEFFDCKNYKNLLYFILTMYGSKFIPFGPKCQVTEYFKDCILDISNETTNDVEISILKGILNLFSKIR

For 40-mer ssDNA, the Kd in series [1] turned out to be 150 nM; in series [2], 100 nM.

B1: Nse2 (natural protein, S. cerevisiae, UniProt P38632 1-267, looked up)
chain: MALNDNPIPKSVPLHPKSGKYFHNLHARDLSNIYQQCYKQIDETINQLVDSTSPSTIGIEEQVADITSTYKLLSTYESESNSFDEHIKDLKKNFKQSSDACPQIDLSTWDKYRTGELTAPKLSELYLNMPTPEPATMVNNTDTLKILKVLPYIWNDPTCVIPDLQNPADEDDLQIEGGKIELTCPITCKPYEAPLISRKCNHVFDRDGIQNYLQGYTTRDCPQAACSQVVSMRDFVRDPIMELRCKIAKMKESQEQDKRSSQAIDVL
notes: Nse2, S. cerevisiae; source: E. coli (DE3) Rosetta, co-expressed with the other subunits of the hexamer, purified as part of the complex
On to B1, for which, in series [3], the binding result is “binds”.

B2: Nse4 (natural protein, S. cerevisiae, UniProt P43124 1-402, looked up)
chain: T2 sequence (looked up) 3
notes: Nse4, S. cerevisiae; also called kleisin Nse4; source: E. coli (DE3) Rosetta, co-expressed with the other subunits of the hexamer, purified as part of the complex
As to B2, the binding result in series [3] was “binds”.

B3: Nse5-AviTag (from Nse5-AviTag-3C-Twin-Strep, Twin-Strep removed) (natural protein, S. cerevisiae, UniProt Q03718 1-556, looked up)
chain: MDGALINSVLYVSPRNGAHYFVELTEKHLLAFEMLNSMCLLENYDHVLLFLECQFGKSHNLAVIPFDIILVLFTLSTLSEYYKEPILRANDPYNTSRETLSRRALKLLQKYLAILKEFDSEQYNLYDLELLRCQFFLAIDTLTPKKQKWGFDRFRRTKSESGVTYRQNASVDPELDQAKTFKNPYRSYISCLEQRNTILGNRLLNLKLNEPGEFINMILWTLSNSLQESTPLFLSSHEIWMPLLEILIDLFSCRQDYFIQHEVAQNVSKSLFVQRLSESPLAVFFESLNTRNFANRFSEYVFLNCDYKLPSDNYATPVHPVYNGENTIVDTYIPTIKCSPLYKSQKSLALRRKLIGSCFKLLLRVPDGHRLITPRIVADDVIQGISRTLASFNDILQFKKFFMTENLSQESYFIPLLAEGTLSEILKDTQECVVILTLVENLSDGVSFCNEVIGLVKSKCFAFTEQCSQASYEEAVLNIEKCDVCLLVLLRYLLHLIGTEAILDAKEQLEMLHAIEKNDSGRRQWAKALNLGNDPPLLYPIVSQMFGVHDKSVIIE
notes: Nse5, S. cerevisiae, full length; subunit of the octamer used for XL-MS; the AviTag lies before the 3C site and should remain; source: E. coli (DE3) Rosetta, co-expressed with Nse6, purified (StrepTrap, heparin, SEC); Twin-Strep removed by HRV-3C; not shown: Twin-Strep (after a 3C site), C-terminal, cleaved
On to B3, for which the binding result (with Nse1/3/4 sub-complex; in series [4]) was “binds” in each case.

B4: Smc5 (natural protein, S. cerevisiae, UniProt Q08204 1-1093, looked up)
chain: MTSLIDLGRYVERTHHGEDTEPRSKRVKIAKPDLSSFQPGSIIKIRLQDFVTYTLTEFNLSPSLNMIIGPNGSGKSTFVCAVCLGLAGKPEYIGRSKKVEDFIKNGQDVSKIEITLKNSPNVTDIEYIDARDETIKITRIITRSKRRSDYLINDYQVSESVVKTLVAQLNIQLDNLCQFLSQERVEEFARLKSVKLLVETIRSIDASLLDVLDELRELQGNEQSLQKDLDFKKAKIVHLRQESDKLRKSVESLRDFQNKKGEIELHSQLLPYVKVKDHKEKLNIYKEEYERAKANLRAILKDKKPFANTKKTLENQVEELTEKCSLKTDEFLKAKEKINEIFEKLNTIRDEVIKKKNQNEYYRGRTKKLQATIISTKEDFLRSQEILAQTHLPEKSVFEDIDIKRKEIINKEGEIRDLISEIDAKANAINHEMRSIQRQAESKTKSLTTTDKIGILNQDQDLKEVRDAVLMVREHPEMKDKILEPPIMTVSAINAQFAAYLAQCVDYNTSKALTVVDSDSYKLFANPILDKFKVNLRELSSADTTPPVPAETVRDLGFEGYLSDFITGDKRVMKMLCQTSKIHTIPVSRRELTPAQIKKLITPRPNGKILFKRIIHGNRLVDIKQSAYGSKQVFPTDVSIKQTNFYQGSIMSNEQKIRIENEIINLKNEYNDRKSTLDALSNQKSGYRHELSELASKNDDINREAHQLNEIRKKYTMRKSTIETLREKLDQLKREARKDVSQKIKDIDDQIQQLLLKQRHLLSKMASSMKSLKNCQKELISTQILQFEAQNMDVSMNDVIGFFNEREADLKSQYEDKKKFVKEMRDTPEFQSWMREIRSYDQDTKEKLNKVAEKYEEEGNFNLSFVQDVLDKLESEIAMVNHDESAVTILDQVTAELRELEHTVPQQSKDLETIKAKLKEDHAVLEPKLDDIVSKISARFARLFNNVGSAGAVRLEKPKDYAEWKIEIMVKFRDNAPLKKLDSHTQSGGERAVSTVLYMIALQEFTSAPFRVVDEINQGMDSRNERIVHKAMVENACAENTSQYFLITPKLLTGLHYHEKMRIHCVMAGSWIPNPSEDPKMIHFGETSNYSFD
notes: Smc5, S. cerevisiae; stood in the assays as a subunit of the hexamer or octamer; source: E. coli (DE3) Rosetta, co-expressed with the other subunits of the hexamer, purified as part of the complex
For B4, the binding result in series [4] is “binds”.

B5: Nse3 (natural protein, S. cerevisiae, UniProt Q05541 1-303, looked up)
chain: T2 sequence (looked up) 2
notes: Nse3, S. cerevisiae; source: E. coli (DE3) Rosetta, co-expressed with the other subunits of the hexamer, purified as part of the complex
Turning to B5, in series [3], the binding result was “binds”.

As a reminder, the Kd is the free concentration of one partner at which half of the binding sites on the other are occupied at equilibrium, for simple one-to-one binding.
